Assay results as given in PMC4293902, “Biochemical and structural characterization of the apicoplast dihydrolipoamide dehydrogenase of Plasmodium falciparum” (Bioscience Reports, 2015).

Assays:
[1] = target: Plasmodium falciparum apicoplast dihydrolipoamide dehydrogenase (PfaE3), recombinant mature-length, N-terminal His-tag (Plasmodium falciparum 3D7); assay: SEC; HiLoad 16/60 Superdex 200, calibrated; 50 mM potassium phosphate, 150 mM NaCl, 2 mM EDTA, pH 7.4; Ni-NTA eluate applied
[2] = target: Plasmodium falciparum apicoplast dihydrolipoamide dehydrogenase (PfaE3), recombinant mature-length, N-terminal His-tag (Plasmodium falciparum 3D7); assay: SAXS; EMBL beamline X33, DESY; 10°C; PfaE3 at 9, 8, 6, 5 and 4 μM; Guinier, p(r) and ab initio DAM with P2 symmetry
[3] = target: Plasmodium falciparum apicoplast dihydrolipoamide dehydrogenase (PfaE3), recombinant mature-length, N-terminal His-tag (Plasmodium falciparum 3D7); assay: AUC; sedimentation equilibrium, 17000 rpm, 4°C, 4.7 to 22.7 μM PfaE3; 50 mM potassium phosphate, 250 mM NaCl, 2 mM EDTA, pH 7.4; interference optics, single species model in SEDPHAT
purified protein [4] = substrate: NC(=O)CCCC[C@@H]1CCSS1; assay: purified protein; assay type: biochemical, Plasmodium falciparum; details: reverse reaction, 200 μM NADH, 50 mM potassium phosphate, 1 mM EDTA, pH 7, 25°C
purified protein [5] = substrate: NC(=O)C1=CN([C@@H]2O[C@H](COP(=O)(O)OP(=O)(O)OC[C@H]3O[C@@H](n4cnc5c(N)ncnc54)[C@H](O)[C@@H]3O)[C@@H](O)[C@H]2O)C=CC1; assay: purified protein; assay type: biochemical, Plasmodium falciparum; details: reverse reaction, 2 mM lipoamide, 50 mM potassium phosphate, 1 mM EDTA, pH 7, 25°C
purified protein [6] = substrate: NC(=O)CCCC[C@@H](S)CCS; assay: purified protein; assay type: biochemical, Plasmodium falciparum; details: forward reaction, 2 mM NAD+, 50 mM potassium phosphate, 1 mM EDTA, pH 8, 25°C
purified protein [7] = substrate: NC(=O)c1ccc[n+]([C@@H]2O[C@H](COP(=O)(O)OP(=O)(O)OC[C@H]3O[C@@H](n4cnc5c(N)ncnc54)[C@H](O)[C@@H]3O)[C@@H](O)[C@H]2O)c1; assay: purified protein; assay type: biochemical, Plasmodium falciparum; details: forward reaction, 2 mM DHLA, 50 mM potassium phosphate, 1 mM EDTA, pH 8, 25°C

Row | stoichiometry N [1] | stoichiometry N [2] | stoichiometry N [3] | Molecule | Km (purified protein [4]) | kcat (purified protein [4]) | Km (purified protein [5]) | kcat (purified protein [5]) | Km (purified protein [6]) | kcat (purified protein [6]) | Km (purified protein [7]) | kcat (purified protein [7])
1 | 2 | 2 | 2 | Plasmodium falciparum apicoplast dihydrolipoamide dehydrogenase (PfaE3), recombinant mature-length, N-terminal His-tag (enzyme) | – | – | – | – | – | – | – | –
2 | – | – | – | PfaE3 (P. falciparum apicoplast E3, dihydrolipoamide dehydrogenase) (Plasmodium falciparum 3D7) (protein, mature-length, apicoplast-targeting peptide removed; given as 110-667 in Results but 118-667 in Methods (forward primer at nt 331, i.e. codon 111); N-terminal 6-His tag kept (pQE30), expressed in E. coli NovaBlue (DE3); about 64 kDa, homodimer 128 kDa; 566 residues with tag; some C-terminally truncated form present) LKGSTQNIMNINEKEYDLAIIGCGVGGHAAAINAMERNLKVIIFAGDENCIGGTCVNVGCIPSKALLYATNKYRELKNLDKLYYYGIHSNIFQNNKNTEIENNQLVSNSFQINITKLKEYTQSVIDKLRNGISHGFKTLKFNKNSEHVQVIYEHGQLLDKNTIKSKKSGNTYKVKNIIIATGSVPNIPNNVEIDDKSVFTSDMAVKLVGLKNYMSIIGMGIIGLEFADIYTALGSEITFLEYSSELLPIIDNDVAKYFERVFLKNKPVNYHLNTEVKYIKASKNNNPVIIGYSHRTGNDDNEKKNMTDVKELYVDSCLVATGRNPNTQNLGLEKLKIQMNRGYVSVNDNLQVKMENNEIYDNIFCIGDANGKQMLAHTASYQALKVIDFIEKKEKKNVNINVENNLSKPILYKNIPSVCYTNPELAFIGLTEKEAKVLYPDNVGVEISYYKSNSKILCENNISLNNNKKNNSYNKGQYNINDNTNGMVKIIYKEDTKEILGMFIVGNYASVLIHEAVLAINLKLSAFDLAYMVHSHPTVSEVLDTAFKSISKIRTH | 841 ± 97 µM | 97 s⁻¹ | 15 ± 2 µM | 77.8 s⁻¹ | 1160 ± 105 µM | 110 s⁻¹ | 96 ± 12 µM | 110 s⁻¹
